Measured values taken from patent publication US7803377B2, “Anti-DLL4 antibodies and methods using same” (Genentech, Inc., priority 2006, dated 2010).
Where a chain is given by its changes, count along the chain named.

B1: YW26.14: affinity matured anti-DLL4 antibody; HVR-H1/H2/H3 SEQ ID NO:2, 3, 9; HVR-L1/L2/L3 SEQ ID NO:10, 11, 14 (antibody, V domains shown)
VH: EVQLVESGGGLVQPGGSLRLSCAASGFSFRDNWISWVRQAPGKGLEWVGVINPNSGSTDYADSVKGRFTISADTSKNTAYLQMNSLRAEDTAVYYCARDNFGGYFDYWGQGTLVTVSS
VL: DIQMTQSPSSLSASVGDRVTITCRASQDVSTAVAWYQQKPGKAPKLLIYSASFLYSGVPSRFSGSGSGTDFTLTISSLQPEDFATYYCQQSVNGPATFGQGTKVEIK
B2: YW26.34: affinity matured anti-DLL4 antibody; HVR-H1/H2/H3 SEQ ID NO:1, 6, 9; HVR-L1/L2/L3 SEQ ID NO:10, 11, 16 (antibody, V domains shown)
VH: B1 VH with S28T, R30T, V50L, N54T, D59I
VL: B1 VL with V92Y, N93T, A96S
B3: immobilized DLL4: immobilized C-terminal His-tagged human DLL4 (amino acids 1-404) used to activate Notch in HUVECs (protein)
chain: GSGVFQLQLQEFINERGVLASGRPCEPGCRTFFRVCLKHFQAVVSPGPCTFGTVSTPVLGTNSFAVRDDSSGGGRNPLQLPFNFTWPGTFSLIIEAWHAPGDDLRPEALPPDALISKIAIQGSLAVGQNWLLDEQTSTLTRLRYSYRVICSDNYYGDNCSRLCKKRNDHFGHYVCQPDGNLSCLPGWTGEYCQQPICLSGCHEQNGYCSKPAECLCRPGWQGRLCNECIPHNGCRHGTCSTPWQCTCDEGWGGLFCDQDLNYCTHHSPCKNGATCSNSGQRSYTCTCRPGYTGVDCELELSECDSNPCRNGGSCKDQEDGYHCLCPPGYYGLHCEHSTLSCADSPCFNGGSCRERNQGANYACECPPNFTGSNCEKKVD
modifications: left off: small tags and cut ends

Columns and labels:
human Delta4 (ECD5.5) = target: T1, human Delta4 (ECD5.5) (Homo sapiens, UniProt Q9NR61); assay: Surface plasmon resonance (BIAcore-3000) binding affinity and kinetics; settings: human DLL4-His injected over coupled antibody, 25° C.
T1 construct: DLL4-His (C-terminal His-tagged human DLL4, amino acid 1-404); His (C)
Method: (§1) To determine the binding affinity of the anti-DLL4 Mabs, surface plasmon resonance (SRP) measurement with a BIAcore™-3000 was used (BIAcore, Inc., Piscataway, N.J.). Briefly, carboxymethylated dextran biosensor chips (CM5, BIAcore Inc.) were activated with N-ethyl-N′-(3-dimethylaminopropyl)-carbodiimide hydrochloride (EDC) and N-hydroxysuccinimide (NHS) according to the supplier's instructions. Anti-DLL4 antibody was diluted with 10 mM sodium acetate, pH 4.8, into 5 μg/ml before injection at a flow rate of 5 μl/minute to achieve approximately 500 response units (RU) of coupled antibody. Next, IM ethanolamine was injected to block unreacted groups. For kinetics measurements, two-fold serial dilutions of either human or murine DLL4-His molecules (0.7 nM to 500 nM) were injected in PBS with 0.05% Tween™ 20 at 25° C. at a flow rate of 25 μl/min. Association rates (kon) and dissociation rates (koff) were calculated using a simple one-to-one Langmuir binding model (BIAcore Evaluation Software version 3.2). The equilibrium dissociation constant (Kd) was calculated as the ratio koff/kon.

murine Delta4 (ECD5.5) = target: T2, murine Delta4 (ECD5.5) (Mus musculus, UniProt Q9JI71); assay: as above; settings: murine DLL4-His injected over coupled antibody, 25° C.
T2 construct: murine Delta4 (ECD5.5); His
Method: as §1

VEGFR2 = assay: Real-time quantitative RT-PCR of VEGFR2 expression in HUVECs; format: cell-based, human; settings: 2-D culture of HUVECs (36 hr)
Method: RNA extraction and Real-time quantitative RT-PCR. Extraction of total RNA from HUVECs in 2-D culture was done using RNeasy® Mini Kit (Qiagen) as per instructions of the manufacturer. To extract total RNA from HUVECs growing in fibrin gels, fibrin gels were treated with 10× trypsin-EDTA (Gibco) for 5 min to remove the top layer fibroblasts, followed by neutralization with 10% FBS in PBS. The gel clots were then removed from tissue culture wells and subjected to centrifugation (10K for 5 min) in microtubes to remove excessive fluid. The resulting gel “pellets” were lysed with lysis buffer (RNeasy® Mini Kit), and further processed as with HUVECs in 2-D culture. The quality of RNA was assessed using RNA 6000 Nano Chips and the Agilent 2100 Bioanalyzer (Agilent Technologies). Real-time quantitative RT-PCR reactions were done in triplicate using 7500 Real Time PCR System (Applied Biosystems). Human GAPDH was used as reference gene for normalization. The expression levels are expressed as the mean (±SEM) fold mRNA changes relative to control from 3 separate determinations. The forward and reverse primer and probe sequences for VEGFR2, TGFβ2 and GAPDH were as follows.
Therefore, while VEGF can act upstream of DLL4/Notch pathway, DLL4/Notch is capable of fine-tuning the response through negatively regulating VEGFR2 expression.

HUVEC = HUVEC proliferation on Notch activation by immobilized DLL4; format: cell-based, human; settings: Notch activation by immobilized DLL4 protein

T2 sequence (Q9JI71 27-405 limits assumed): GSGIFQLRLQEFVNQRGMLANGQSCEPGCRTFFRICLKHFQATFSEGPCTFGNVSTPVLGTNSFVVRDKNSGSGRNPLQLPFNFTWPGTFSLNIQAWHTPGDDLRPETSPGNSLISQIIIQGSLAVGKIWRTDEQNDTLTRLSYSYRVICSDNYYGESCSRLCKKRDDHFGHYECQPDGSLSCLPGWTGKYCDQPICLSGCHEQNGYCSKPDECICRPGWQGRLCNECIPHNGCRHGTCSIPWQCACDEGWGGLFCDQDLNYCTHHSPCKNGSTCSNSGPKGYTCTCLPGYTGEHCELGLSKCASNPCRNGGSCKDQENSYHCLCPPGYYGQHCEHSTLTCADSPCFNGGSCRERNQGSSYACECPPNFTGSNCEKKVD

Molecule	koff/10^−4 (human Delta4 (ECD5.5))	kon/10^5 (human Delta4 (ECD5.5))	koff10^−4 (murine Delta4 (ECD5.5))	kon/10^5 (murine Delta4 (ECD5.5))	VEGFR2 expression on Notch activation (VEGFR2)	HUVEC proliferation / growth (HUVEC)
B1	0.66 10^−4	1.8 10^5	0.73 10^−4	3.3 10^5	–	–
B2	0.67 10^−4	1.9 10^5	0.65 10^−4	3.6 10^5	–	–
B3	–	–	–	–	suppressed the expression of VEGFR2	significant growth inhibition
